B1: anti-CI-M6PR VHH7 (VHH)
VHH: QVQLQESGGGLVQPGGSLRLSCAASGIIFSDNRMDWYRQAPGKQREWVATLASYGWKTYADSVKGRFTISRDNTKNTVYLRMNSLKPEDTAVYYCKASSPVLNDIWGQGTQVTVSS
notes: His6-tagged (Pichia pastoris)
B2: anti-CI-M6PR VHH8 (VHH)
VHH: QVQLQESGGGLVQAGGSLRLSCEASGRTFNTYNWGWFRQAPGKEREFVAAIRWSSSKTSYADSVKGRFTISRDNAKNTIYLQMNSLKPEDTAVYYCAASIVDFTTNPSHFGSWGQGTQVTVSS
notes: His6-tagged (Pichia pastoris)

Assays:
[1] = molecular target: T1, mouse cation-independent mannose-6-phosphate receptor on cells (mouse, UniProt Q07113 36-2483); assay: flow cytometry, FLAG3-His6 VHH on mouse bEND3 cells
T1 construct: whole, on cells; also called mouse CI-M6PR of bEND3 cells; mCI-M6PR
T1 sequence (Q07113 36-2483): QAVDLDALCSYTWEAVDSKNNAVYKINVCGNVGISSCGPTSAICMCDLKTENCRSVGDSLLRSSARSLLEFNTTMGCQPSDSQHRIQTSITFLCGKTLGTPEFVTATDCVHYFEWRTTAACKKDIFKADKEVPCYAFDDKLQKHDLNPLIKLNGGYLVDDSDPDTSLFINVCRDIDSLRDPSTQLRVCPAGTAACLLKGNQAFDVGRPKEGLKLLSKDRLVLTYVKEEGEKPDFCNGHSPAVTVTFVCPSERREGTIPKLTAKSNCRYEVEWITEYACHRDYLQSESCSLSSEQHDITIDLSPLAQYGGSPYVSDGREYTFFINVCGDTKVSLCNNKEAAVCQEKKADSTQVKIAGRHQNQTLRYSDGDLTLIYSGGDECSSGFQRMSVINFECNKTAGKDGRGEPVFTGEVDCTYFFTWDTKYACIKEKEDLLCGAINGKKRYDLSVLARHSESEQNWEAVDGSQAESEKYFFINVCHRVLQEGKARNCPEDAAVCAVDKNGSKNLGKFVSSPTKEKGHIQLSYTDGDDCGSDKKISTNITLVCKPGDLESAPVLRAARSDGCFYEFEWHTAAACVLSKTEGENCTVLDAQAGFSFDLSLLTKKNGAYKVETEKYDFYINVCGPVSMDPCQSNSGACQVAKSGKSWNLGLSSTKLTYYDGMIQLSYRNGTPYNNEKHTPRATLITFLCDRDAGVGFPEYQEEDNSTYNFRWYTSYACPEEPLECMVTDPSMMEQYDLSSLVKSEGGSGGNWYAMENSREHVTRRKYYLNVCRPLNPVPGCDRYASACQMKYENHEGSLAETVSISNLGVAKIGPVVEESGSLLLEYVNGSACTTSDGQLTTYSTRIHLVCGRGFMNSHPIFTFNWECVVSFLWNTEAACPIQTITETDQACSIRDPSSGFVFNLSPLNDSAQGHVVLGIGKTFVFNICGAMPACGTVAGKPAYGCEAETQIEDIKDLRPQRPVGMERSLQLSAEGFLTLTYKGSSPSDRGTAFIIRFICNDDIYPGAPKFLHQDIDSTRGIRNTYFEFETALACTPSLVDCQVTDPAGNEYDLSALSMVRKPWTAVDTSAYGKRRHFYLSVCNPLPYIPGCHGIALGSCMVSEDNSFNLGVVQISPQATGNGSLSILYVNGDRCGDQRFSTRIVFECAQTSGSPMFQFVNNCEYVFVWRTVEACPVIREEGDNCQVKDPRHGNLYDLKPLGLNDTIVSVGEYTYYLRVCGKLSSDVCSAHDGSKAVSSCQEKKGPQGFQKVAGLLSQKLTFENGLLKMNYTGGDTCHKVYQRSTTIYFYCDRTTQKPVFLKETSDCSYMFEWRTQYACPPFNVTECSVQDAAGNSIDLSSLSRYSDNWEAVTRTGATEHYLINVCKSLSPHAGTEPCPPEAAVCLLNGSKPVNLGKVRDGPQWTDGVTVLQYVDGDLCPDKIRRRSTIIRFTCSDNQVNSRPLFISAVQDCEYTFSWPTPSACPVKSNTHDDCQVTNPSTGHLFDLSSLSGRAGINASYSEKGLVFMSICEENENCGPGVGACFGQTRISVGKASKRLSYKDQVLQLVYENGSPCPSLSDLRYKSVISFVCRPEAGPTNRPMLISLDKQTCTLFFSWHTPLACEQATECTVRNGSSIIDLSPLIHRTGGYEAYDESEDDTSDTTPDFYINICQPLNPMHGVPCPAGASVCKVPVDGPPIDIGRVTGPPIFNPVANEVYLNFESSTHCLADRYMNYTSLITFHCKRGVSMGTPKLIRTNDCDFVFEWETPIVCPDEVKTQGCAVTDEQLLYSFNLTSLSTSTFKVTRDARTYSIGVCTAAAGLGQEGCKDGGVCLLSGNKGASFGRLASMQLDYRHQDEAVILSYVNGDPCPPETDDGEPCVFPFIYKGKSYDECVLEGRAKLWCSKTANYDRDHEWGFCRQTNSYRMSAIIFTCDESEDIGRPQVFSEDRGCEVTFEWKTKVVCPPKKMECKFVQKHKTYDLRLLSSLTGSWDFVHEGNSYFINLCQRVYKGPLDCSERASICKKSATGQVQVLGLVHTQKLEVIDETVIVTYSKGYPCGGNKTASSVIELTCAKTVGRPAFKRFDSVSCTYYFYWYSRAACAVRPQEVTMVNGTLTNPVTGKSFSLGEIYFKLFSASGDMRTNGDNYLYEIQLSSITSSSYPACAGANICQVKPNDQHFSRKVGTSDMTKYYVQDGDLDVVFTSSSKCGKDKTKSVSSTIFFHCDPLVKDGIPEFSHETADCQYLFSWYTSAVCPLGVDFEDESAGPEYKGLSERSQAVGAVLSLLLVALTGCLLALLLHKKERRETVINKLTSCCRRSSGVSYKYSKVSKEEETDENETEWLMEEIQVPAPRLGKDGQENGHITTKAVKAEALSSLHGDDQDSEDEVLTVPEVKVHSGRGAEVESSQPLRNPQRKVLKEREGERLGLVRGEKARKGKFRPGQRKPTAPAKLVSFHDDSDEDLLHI
Text: (§1) Synthetic DNA fragments encoding VHHs were ordered (IDT, Leuven, Belgium) and subcloned into an E. coli expression vector under control of an IPTG-inducible lac promoter, in frame with N-terminal PelB signal peptide (which directs the recombinant proteins to the periplasmic compartment) and C-terminal FLAG3 and His6 tags. […] VHH proteins were purified from these clones by means of IMAC chromatography followed by desalting according to well established procedures¹⁰⁶. Cells used herein were recovered using cell dissociation non-enzymatic solution (Sigma Aldrich, cat. #C5914-100ML) and resuspended to a final concentration of 1,000,000 cells/mL in FACS buffer. Cells were incubated with different concentrations of purified FLAG3-tagged VHHs for 30 minutes on ice with shaking, followed by washing and incubation with mouse M2 anti-Flag mAb (Sigma Aldrich, cat. #F-1804) in FACS buffer for 30 min on ice with shaking, followed again by washing. […] Flow cytometry and analysis were done on an Attune NxT Flow Cytometer (Thermo Fisher Scientific).
(§2) Moreover, cross-reactivity to mouse CI-M6PR was analyzed, in view of the amino acid homology between mouse and human being overall about 80% identity, but for domain 1-3 of CI-M6PR just about 75% identity.

[2] = molecular target: T2, human cation-independent mannose-6-phosphate receptor, native, on cells (human, UniProt P11717 41-2491); assay: flow cytometry on HepG2 cells: FLAG3-tagged VHH 30 min on ice, M2 anti-Flag mAb, PE anti-mouse F(ab')2 [upper graph]
T2 construct: whole, on cells; also called native CI-M6PR; cell-surface hCI-M6PR
T2 sequence (P11717 41-2491): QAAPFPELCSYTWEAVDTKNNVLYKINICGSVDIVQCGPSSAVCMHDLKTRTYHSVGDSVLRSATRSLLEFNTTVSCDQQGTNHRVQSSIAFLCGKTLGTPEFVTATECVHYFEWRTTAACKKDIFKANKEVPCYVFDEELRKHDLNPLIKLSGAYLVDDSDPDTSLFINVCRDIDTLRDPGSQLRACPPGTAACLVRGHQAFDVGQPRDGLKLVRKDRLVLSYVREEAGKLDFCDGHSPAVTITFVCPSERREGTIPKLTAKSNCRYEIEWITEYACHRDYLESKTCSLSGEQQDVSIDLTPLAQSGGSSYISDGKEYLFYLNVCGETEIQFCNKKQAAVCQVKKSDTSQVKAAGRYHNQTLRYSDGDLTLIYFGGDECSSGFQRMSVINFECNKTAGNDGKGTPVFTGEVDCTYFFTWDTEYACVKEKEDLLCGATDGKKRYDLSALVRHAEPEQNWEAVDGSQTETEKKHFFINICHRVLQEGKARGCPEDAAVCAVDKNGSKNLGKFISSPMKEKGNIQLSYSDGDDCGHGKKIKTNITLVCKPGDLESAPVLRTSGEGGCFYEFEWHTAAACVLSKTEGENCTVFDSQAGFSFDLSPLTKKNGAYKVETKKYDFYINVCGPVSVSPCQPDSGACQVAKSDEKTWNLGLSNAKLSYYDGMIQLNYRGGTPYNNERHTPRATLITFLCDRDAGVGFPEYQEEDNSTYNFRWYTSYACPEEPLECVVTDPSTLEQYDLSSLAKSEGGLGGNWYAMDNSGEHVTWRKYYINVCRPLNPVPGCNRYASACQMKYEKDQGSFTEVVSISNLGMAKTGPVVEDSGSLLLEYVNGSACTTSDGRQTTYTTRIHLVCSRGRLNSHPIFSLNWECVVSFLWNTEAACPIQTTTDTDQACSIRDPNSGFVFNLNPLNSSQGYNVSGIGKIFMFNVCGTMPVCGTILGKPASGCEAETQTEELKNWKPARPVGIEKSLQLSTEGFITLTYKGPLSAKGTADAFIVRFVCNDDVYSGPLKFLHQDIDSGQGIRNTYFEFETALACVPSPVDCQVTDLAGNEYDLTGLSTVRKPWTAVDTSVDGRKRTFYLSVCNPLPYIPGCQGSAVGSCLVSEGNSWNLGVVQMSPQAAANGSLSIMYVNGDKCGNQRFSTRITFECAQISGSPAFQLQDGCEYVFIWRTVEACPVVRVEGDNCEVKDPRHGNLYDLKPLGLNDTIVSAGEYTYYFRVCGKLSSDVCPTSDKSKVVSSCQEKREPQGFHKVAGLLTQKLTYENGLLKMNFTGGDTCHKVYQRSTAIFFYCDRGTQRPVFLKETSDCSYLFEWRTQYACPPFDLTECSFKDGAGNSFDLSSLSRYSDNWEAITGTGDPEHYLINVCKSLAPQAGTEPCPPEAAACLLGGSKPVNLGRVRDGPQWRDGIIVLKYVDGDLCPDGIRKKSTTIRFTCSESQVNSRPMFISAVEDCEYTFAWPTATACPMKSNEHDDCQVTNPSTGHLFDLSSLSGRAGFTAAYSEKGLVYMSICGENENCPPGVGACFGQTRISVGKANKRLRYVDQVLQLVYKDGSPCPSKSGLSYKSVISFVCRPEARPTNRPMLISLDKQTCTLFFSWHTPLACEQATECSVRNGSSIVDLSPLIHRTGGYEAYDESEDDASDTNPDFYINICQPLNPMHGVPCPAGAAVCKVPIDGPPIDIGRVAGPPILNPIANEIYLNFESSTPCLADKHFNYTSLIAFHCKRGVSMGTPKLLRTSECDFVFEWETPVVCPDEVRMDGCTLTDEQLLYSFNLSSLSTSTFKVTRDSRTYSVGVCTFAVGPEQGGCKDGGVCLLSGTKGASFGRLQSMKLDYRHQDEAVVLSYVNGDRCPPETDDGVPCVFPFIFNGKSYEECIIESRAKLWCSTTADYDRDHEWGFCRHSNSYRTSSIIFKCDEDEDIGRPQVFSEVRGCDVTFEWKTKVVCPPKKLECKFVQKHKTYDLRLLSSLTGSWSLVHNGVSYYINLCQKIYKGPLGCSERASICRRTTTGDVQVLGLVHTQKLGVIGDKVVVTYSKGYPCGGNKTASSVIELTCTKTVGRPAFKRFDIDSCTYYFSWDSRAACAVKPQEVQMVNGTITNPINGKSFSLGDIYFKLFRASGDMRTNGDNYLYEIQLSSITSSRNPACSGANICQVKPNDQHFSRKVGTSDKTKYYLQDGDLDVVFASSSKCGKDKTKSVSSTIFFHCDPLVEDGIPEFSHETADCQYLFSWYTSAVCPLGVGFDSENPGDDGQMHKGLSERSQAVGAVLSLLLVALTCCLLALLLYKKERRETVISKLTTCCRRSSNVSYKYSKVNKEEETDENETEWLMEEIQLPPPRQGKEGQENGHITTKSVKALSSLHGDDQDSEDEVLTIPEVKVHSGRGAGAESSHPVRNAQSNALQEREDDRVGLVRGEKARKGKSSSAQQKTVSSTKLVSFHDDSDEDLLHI
Text: as §1, §2

EC50 [1] [nM]	EC50 (read off the curve) [2] [nM]	Binder
~8.5		B1
	~2	B2
